B1: deamidase inhibitor from Chryseobacterium sp-62563 (other)
chain: QNLTWYNNSTITNITEDPDKPNEVVRVSIGISAQVFYLSKKSTDYKTLLEKATQSFKKSKTYDIGIENKTNIIKEIKEVK
B2: active deamidase from Chryseobacterium sp-62563 (protein)
chain: AVSVIPNLATLNSLFAQIKNQACGTSTASSPCITFRYPVDGCYARAHKMRQILLNAGYDCEKQFVYGNLRASTGTCCVSWVYHVAILVSFKNASGVVEKRIIDPSLFSSGPVTDAAWRAACTNTSCGSASVSSFANTAGNVYYRSPSGSLLYDNNYVNTNCVLNIFSSLSGCSPSPAPSVASCGF

Legend:
[1] = target: T1, active deamidase from Chryseobacterium sp-62563 (Chryseobacterium sp-62563); assay: nanoDSF at 330 nm, Tm of the deamidase/inhibitor complex; active deamidase alone (SEQ ID NO: 4) gave 66.3° C.
T1 construct: Protein-glutamine glutaminase (EC 3.5.1.44), called 'active deamidase'
T1 chain: B2 chain
Procedure: 60 μL sample was transferred in replicates to a black-bottomed 384 well plate, and the plate was briefly centrifugated to remove potential air bubbles.
The thermal unfolding temperature of the samples was analyzed using a Prometheus NT.Plex system from NanoTemper Technologies GmbH, with the following settings: [0305] (i) Temperature scan rate: 3.3° C. per minute; and [0306] (ii) Temperature scan interval: 20-95° C.
Using the nanoDSF procedure, as described in Example 2, the thermal unfolding temperature of an active deamidase and the corresponding deamidase/inhibitor complex was measured.

[2] = target: T2, deamidase inhibitor from Chryseobacterium sp-62563
T2 chain: B1 chain

Binder | NanoDSF thermal unfolding temperature [1] [° C.] | deamidase activity (% initial rate), fluorescence substrate FITC-PP-Dnp with glutamyl endopeptidase [2]
B1 | 70.1 | 
B2 |  | the deamidase activity (% initial rate) was significantly reduced
